{"source": "paper doi:10.1101/2022.03.03.481873v1", "assay_in_all_cases": "purified protein", "key": {"[1]": {"tested_on": "O=C(O)CCC(=O)C1=CC=C[C@@H](O)[C@@H]1C(=O)O", "details": "50 mM Tris pH 8.0, 0.1 mM MnCl2, 25 °C, Amycolatopsis numbering"}, "[2]": {"substrate": "C[C@H](N)C(=O)N[C@@H](CCC(=O)O)C(=O)O", "format": "biochemical, Bacillus subtilis", "details": "50 mM Tris pH 8.0, 10 mM MgCl2, 25 °C"}, "[3]": {"substrate": "O=C(O)CCC(=O)N[C@@H](C(=O)O)c1ccccc1", "details": "200 mM Tris pH 8.0, 0.1 mM MnCl2, 25 °C"}, "[4]": {"substrate": "O=C(O)CCC(=O)C1=CC=C[C@@H](O)[C@@H]1C(=O)O", "details": "50 mM Tris pH 8.0, 0.1 mM MnCl2, 25 °C"}, "[5]": {"substrate": "C[C@H](N)C(=O)N[C@@H](CCC(=O)O)C(=O)O", "format": "biochemical, Escherichia coli", "details": "50 mM Tris pH 8.0, 10 mM MgCl2, 25 °C"}}, "data": [{"molecule": "LiNSAR/OSBS (Listeria innocua Clip11262; R266Q)", "values": [{"measurement": "Km", "setting": "[1]", "result": "163 ± 15", "unit": "µM"}, {"measurement": "kcat", "setting": "[1]", "result": "0.57 ± 0.02", "unit": "s⁻¹"}]}, {"molecule": "BsDE (Bacillus subtilis subsp. subtilis str. 168; K271Q) (protein) MKIIRIETSRIAVPLTKPFKTALRTVYTAESVIVRITYDSGAVGWGEAPPTLVITGDSMDSIESAIHHVLKPALLGKSLAGYEAILHDIQHLLTGNMSAKAAVEMALYDGWAQMCGLPLYQMLGGYRDTLETDYTVSVNSPEEMAADAENYLKQGFQTLKIKVGKDDIATDIARIQEIRKRVGSAVKLRLDANQGWRPKEAVTAIRKMEDAGLGIELVEQPVHKDDLAGLKKVTDATDTPIMADESVFTPRQAFEVLQTRSADLINIKLMQAGGISGAEKINAMAEACGVECMVGSMIETKLGITAAAHFAASKRNITRFDFDAPLMLKTDVFNGGITYSGSTISMPGKPGLGIIGAALLKGEKEQ", "values": [{"measurement": "Km", "setting": "[2]", "result": "508 ± 165", "unit": "µM"}, {"measurement": "kcat", "setting": "[2]", "result": "0.23 ± 0.03", "unit": "s⁻¹"}]}, {"molecule": "BsDE (Bacillus subtilis subsp. subtilis str. 168) (protein) MKIIRIETSRIAVPLTKPFKTALRTVYTAESVIVRITYDSGAVGWGEAPPTLVITGDSMDSIESAIHHVLKPALLGKSLAGYEAILHDIQHLLTGNMSAKAAVEMALYDGWAQMCGLPLYQMLGGYRDTLETDYTVSVNSPEEMAADAENYLKQGFQTLKIKVGKDDIATDIARIQEIRKRVGSAVKLRLDANQGWRPKEAVTAIRKMEDAGLGIELVEQPVHKDDLAGLKKVTDATDTPIMADESVFTPRQAFEVLQTRSADLINIKLMKAGGISGAEKINAMAEACGVECMVGSMIETKLGITAAAHFAASKRNITRFDFDAPLMLKTDVFNGGITYSGSTISMPGKPGLGIIGAALLKGEKEQ", "values": [{"measurement": "Km", "setting": "[2]", "result": "452 ± 120", "unit": "µM"}, {"measurement": "kcat", "setting": "[2]", "result": "21.4 ± 2", "unit": "s⁻¹"}]}, {"molecule": "LiNSAR/OSBS (Listeria innocua Clip11262) (protein) MYFQKARLIHAELPLLAPFKTSYGELKSKDFYIIELINEEGIHGYGELEAFPLPDYTEETLSSAILIIKEQLLPLLAQRKIRKPEEIQELFSWIQGNEMAKAAVELAVWDAFAKMEKRSLAKMIGATKESIKVGVSIGLQQNVETLLQLVNQYVDQGYERVKLKIAPNKDIQFVEAVRKSFPKLSLMADANSAYNREDFLLLKELDQYDLEMIEQPFGTKDFVDHAWLQKQLKTRICLDENIRSVKDVEQAHSIGSCRAINLKLARVGGMSSALKIAEYCALNEILVWCGGMLEAGVGRAHNIALAARNEFVFPGDISASNRFFAEDIVTPAFELNQGRLKVPTNEGIGVTLDLKVLKKYTKSTEEILLNKGWS", "values": [{"measurement": "Km", "setting": "[3]", "result": "1000 ± 270", "unit": "µM"}, {"measurement": "kcat", "setting": "[3]", "result": "3.74 ± 0.5", "unit": "s⁻¹"}, {"measurement": "Km", "setting": "[4]", "result": "155 ± 16", "unit": "µM"}, {"measurement": "kcat", "setting": "[4]", "result": "216 ± 7", "unit": "s⁻¹"}]}, {"molecule": "EfNSAR/OSBS (Enterococcus faecalis V583) (protein) MNIQSIETYQVRLPLKTPFVTSYGRLEEKAFDLFVITDEQGNQGFGELVAFEQPDYVQETLVTERFIIQQHLIPLLLTEAIEQPQEVSTIFEEVKGHWMGKAALETAIWDLYAKRQQKSLTEFFGPTRRKIPVGISLGIQEDLPQLLKQVQLAVEKGYQRVKLKIRPGYDVEPVALIRQHFPNLPLMVDANSAYTLADLPQLQRLDHYQLAMIEQPFAADDFLDHAQLQRELKTRICLDENIRSLKDCQVALALGSCRSINLKIPRVGGIHEALKIAAFCQENDLLVWLGGMFESGVGRALNLQFASQPTFSFPGDISATERYFYEDIITEPFILEQGTMTVPQGLGIGVTLSQTNLLKYSQYQKIM", "values": [{"measurement": "Km", "setting": "[3]", "result": "1500 ± 150", "unit": "µM"}, {"measurement": "kcat", "setting": "[3]", "result": "34 ± 1", "unit": "s⁻¹"}, {"measurement": "Km", "setting": "[4]", "result": "17 ± 3", "unit": "µM"}, {"measurement": "kcat", "setting": "[4]", "result": "160 ± 7", "unit": "s⁻¹"}]}, {"molecule": "EcDE (Escherichia coli K-12) (protein) MRTVKVFEEAWPLHTPFVIARGSRSEARVVVVELEEEGIKGTGECTPYPRYGESDASVMAQIMSVVPQLEKGLTREELQKILPAGAARNALDCALWDLAARRQQQSLADLIGITLPETVITAQTVVIGTPDQMANSASTLWQAGAKLLKVKLDNHLISERMVAIRTAVPDATLIVDANESWRAEGLAARCQLLADLGVAMLEQPLPAQDDAALENFIHPLPICADESCHTRSNLKALKGRYEMVNIKLDKTGGLTEALALATEARAQGFSLMLGCMLCTSRAISAALPLVPQVSFADLDGPTWLAVDVEPALQFTTGELHL", "values": [{"measurement": "Km", "setting": "[5]", "result": "340 ± 60", "unit": "µM"}, {"measurement": "kcat", "setting": "[5]", "result": "11.4 ± 0.7", "unit": "s⁻¹"}]}, {"molecule": "RcNSAR/OSBS (Roseiflexus castenholzii DSM 13941) (protein) MKIESITLHHIDMPLVAPFETSFGRETHRPCILIEMRADGLTGWGECVAGAGPWYAYETIGTAWHIISDFLAPMIVGQEITEPIGIVERFASVRGHPMARAAVEAAFWDLYAQARGVSLARLIGATRDRVTVGVSVGIELTLEAQLASIERFVAAGYARIKLKIKPGWDVAVVRAVRERWPDIALQVDANSAYTPDDAPIFRELDEMNLLLIEQPLHHDDIVDHARLQAQISTPICLDESIHSPEHARWALDIDACRVINIKIGRVGGLTAARQIHDLCAERGVPVWCGGMLETNVGRAVNLALAALPNFALPGDISASARYYHRDIAAPDFVLNDDSTITVPDTPGTGVAVLPERLRDVQVREVIIGKG", "values": [{"measurement": "Km", "setting": "[3]", "result": "900 ± 100", "unit": "µM"}, {"measurement": "kcat", "setting": "[3]", "result": "12.7 ± 0.4", "unit": "s⁻¹"}, {"measurement": "Km", "setting": "[4]", "result": "116 ± 15", "unit": "µM"}, {"measurement": "kcat", "setting": "[4]", "result": "54.6 ± 2", "unit": "s⁻¹"}]}]}
